Assay results as given in article PMC4811514, “MULTIMERIN2 binds VEGF-A primarily via the carbohydrate chains exerting an angiostatic function and impairing tumor growth” (Oncotarget, 2015).
Values belong to the molecule of their own block, whether it stands above or below them.

Assays:
[1] = target: MMRN2 Δ2 deletion mutant (UniProt Q9H8L6); experiment: SPR; Biacore X100, CM5 chip; Δ2 fragment immobilised by amine coupling (1770 RU); VEGF-A165 in HBS-EP buffer, 30 μL/min, 60 seconds of contact
[2] = target: T1, MULTIMERIN2 (UniProt Q9H8L6 23-949, glycosylated (carbohydrate chains)); experiment: SPR; Biacore X100, CM5 chip; MMRN2 immobilised by amine coupling (3150 RU); cytokines in HBS-EP buffer (150 mM NaCl), 30 μL/min, 60 seconds of contact
T1 construct: MULTIMERIN2 (MMRN2), the whole recombinant His-tagged molecule; also called MMRN2; the whole molecule; source: 293-EBNA cells, purified from serum-free medium (Ni-NTA resin)
T1 sequence (looked up): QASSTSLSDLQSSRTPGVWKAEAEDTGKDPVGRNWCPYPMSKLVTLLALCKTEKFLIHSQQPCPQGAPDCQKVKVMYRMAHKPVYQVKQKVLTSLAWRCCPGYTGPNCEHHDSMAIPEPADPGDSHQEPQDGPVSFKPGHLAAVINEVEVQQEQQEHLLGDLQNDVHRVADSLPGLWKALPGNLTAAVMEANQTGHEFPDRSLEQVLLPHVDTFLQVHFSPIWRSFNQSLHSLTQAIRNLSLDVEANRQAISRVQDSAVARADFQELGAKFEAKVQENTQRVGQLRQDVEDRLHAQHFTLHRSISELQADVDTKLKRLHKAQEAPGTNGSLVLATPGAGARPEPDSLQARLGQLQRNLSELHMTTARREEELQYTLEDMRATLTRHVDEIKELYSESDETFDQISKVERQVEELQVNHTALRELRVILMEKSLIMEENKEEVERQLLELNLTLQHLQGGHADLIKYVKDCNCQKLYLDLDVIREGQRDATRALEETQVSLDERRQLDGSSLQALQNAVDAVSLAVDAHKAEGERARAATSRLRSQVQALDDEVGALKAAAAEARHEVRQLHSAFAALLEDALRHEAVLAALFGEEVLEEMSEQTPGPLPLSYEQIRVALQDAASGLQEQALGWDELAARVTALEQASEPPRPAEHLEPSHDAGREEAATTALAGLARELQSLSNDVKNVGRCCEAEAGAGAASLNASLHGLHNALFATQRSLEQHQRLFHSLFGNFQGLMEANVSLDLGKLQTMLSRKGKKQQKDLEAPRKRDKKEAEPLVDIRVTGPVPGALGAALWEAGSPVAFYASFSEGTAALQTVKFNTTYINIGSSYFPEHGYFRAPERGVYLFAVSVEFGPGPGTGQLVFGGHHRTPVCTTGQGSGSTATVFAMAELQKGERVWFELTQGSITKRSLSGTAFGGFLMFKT

[3] = target: T1, MULTIMERIN2; experiment: SPR; Biacore X100, CM5 chip; MMRN2 immobilised by amine coupling; NaCl concentration of 300 mM instead of 150 mM

- Kd [1]: 430 nM
Molecule: VEGF-A165 (ligand)

- Kd [2]: 560 nM
Molecule: PlGF-1 (from UniProt P49763-2 19-149) (ligand)

- Kd [2]: 750 nM
Molecule: VEGF-C (from UniProt P49767 112-227) (ligand)

- Kd [3]: 3 nM
Molecule: VEGF-A189 (ligand)

- Kd [3]: 27 nM
Molecule: VEGF-A145 (ligand)

- Kd [2]: 200 nM
Molecule: VEGF-A121 (ligand)

- Kd ([2]; both partners purified): 640 nM
B1: VEGF-D (ligand, UniProt O43915 89-205, looked up)
chain: FAATFYDIETLKVIDEEWQRTQCSPRETCVEVASELGKSTNTFFKPPCVNVFRCGGCCNEESLICMNTSTSYISKQLFEISVPLTSVPELVPVKVANHTGCKCLPTAPRHPYSIIRR
notes: vascular endothelial growth factor D; Commercial VEGF-D is usually the processed VEGF homology domain, not the whole precursor; source: bought: Peprotech
